Source: US20050037949A1, “Mannose binding lectin and uses thereof” (priority 2002, published 2005)
Like-named read-outs stand apart in the source and are kept apart here.

Key:
[1] = biological target: MBL associated serine protease 2 (MASP2) (human) (UniProt O00187); assay: cell-based or functional assay
[2] = biological target: MBL associated serine protease 2 (MASP2) (human) (UniProt O00187); assay: cell-based or functional assay; remark: listed apart in the source

MBL associated serine protease 2 (MASP2) (human), sequence (O00187 16-686 limits assumed): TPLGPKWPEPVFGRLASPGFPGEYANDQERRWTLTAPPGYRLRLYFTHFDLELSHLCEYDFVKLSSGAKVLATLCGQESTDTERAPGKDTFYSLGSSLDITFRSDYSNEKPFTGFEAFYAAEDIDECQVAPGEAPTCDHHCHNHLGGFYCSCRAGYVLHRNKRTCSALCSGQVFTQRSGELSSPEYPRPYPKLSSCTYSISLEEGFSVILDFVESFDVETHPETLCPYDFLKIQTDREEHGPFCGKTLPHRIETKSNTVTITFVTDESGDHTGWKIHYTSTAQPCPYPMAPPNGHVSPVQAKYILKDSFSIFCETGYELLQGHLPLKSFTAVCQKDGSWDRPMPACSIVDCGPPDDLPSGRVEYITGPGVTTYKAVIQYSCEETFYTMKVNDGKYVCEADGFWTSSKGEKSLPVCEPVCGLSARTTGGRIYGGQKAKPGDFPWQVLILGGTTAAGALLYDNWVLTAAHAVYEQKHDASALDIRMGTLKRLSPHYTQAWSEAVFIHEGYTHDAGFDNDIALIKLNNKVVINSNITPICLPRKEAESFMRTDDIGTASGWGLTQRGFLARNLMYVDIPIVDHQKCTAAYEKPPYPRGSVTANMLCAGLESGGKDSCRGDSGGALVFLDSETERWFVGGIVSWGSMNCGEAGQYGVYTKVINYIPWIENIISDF
affinity purified MBL-MASP complex, sequence (P11226 21-248, one chain of several): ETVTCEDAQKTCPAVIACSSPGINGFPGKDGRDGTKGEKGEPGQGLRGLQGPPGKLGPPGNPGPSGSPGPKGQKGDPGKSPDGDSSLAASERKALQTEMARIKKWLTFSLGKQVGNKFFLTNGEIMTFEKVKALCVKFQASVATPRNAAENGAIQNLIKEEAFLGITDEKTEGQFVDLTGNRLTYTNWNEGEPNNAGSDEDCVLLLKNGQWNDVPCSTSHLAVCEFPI

C4 deposition at MBL 0.624 ug/mL [1]: 0.05 U/ul
C4 deposition at MBL 1.032 ug/mL [1]: 0.068 U/ul
C4 deposition at MBL 2.081 ug/mL [1]: 0.103 U/ul
C4 deposition at MBL 3.3 ug/mL [1]: 0.197 U/ul
C4 deposition at MBL 4.08 ug/mL [1]: 0.138 U/ul
C4 deposition at MBL 4.42 ug/mL [1]: 0.168 U/ul
C4 deposition at MBL 5.95 ug/mL [1]: 0.172 U/ul
C4 deposition at MBL 6.94 ug/mL [1]: 0.197 U/ul
C4 deposition at MBL 11.41 ug/mL [1]: 0.204 U/ul
C4 deposition at MBL 15 ug/mL [1]: 0.246 U/ul
C4 deposition at MBL 25 µg/mL (previous assay, same batch) [1]: 0.27 U/µl
C4 deposition at MBL 40 ug/mL [1]: 0.321 U/ul
C4 deposition at MBL 50 ug/mL [1]: 0.289 U/ul
C4 deposition at MBL 0.471 ug/mL [2]: 0.054 U/ul
C4 deposition at MBL 1.065 ug/mL [2]: 0.057 U/ul
C4 deposition at MBL 2.237 ug/mL [2]: 0.104 U/ul
C4 deposition at MBL 2.802 ug/mL [2]: 0.114 U/ul
C4 deposition at MBL 4.011 ug/mL [2]: 0.138 U/ul
C4 deposition at MBL 4.681 ug/mL [2]: 0.171 U/ul
C4 deposition at MBL 5.382 ug/mL [2]: 0.159 U/ul
C4 deposition at MBL 6.814 ug/mL [2]: 0.19 U/ul
C4 deposition at MBL 7.967 ug/mL [2]: 0.203 U/ul
C4 deposition at MBL 10.998 ug/mL [2]: 0.22 U/ul
C4 deposition at MBL 40 ug/mL [2]: 0.292 U/ul
C4 deposition at MBL 50 ug/mL [2]: 0.308 U/ul
Substance: affinity purified MBL-MASP complex (from UniProt P11226 21-248)
